Assay results as given in patent US20260055154A1 (CHENGDU AODA BIOTECHNOLOGY, published 2026).
Starred links: 1 amine or outer side, 2 acyl side, 3 side chain; linkers in the order of their positions; H or OH if unused. Non-standard residues stand in square brackets, D forms with d. Groups on a side chain read outwards from the residue. No end group written: not given here. *: point of attachment. C20 diacid = O=C(O)CCCCCCCCCCCCCCCCCCC(=O)*; γGlu = O=C(O)[C@H](CCC(=O)[*:2])N[*:1]; AEEA = NCCOCCOCC(=O)O; Aib = CC(C)(N)C(=O)O

What was measured:
glucagon (Gcg) receptor = experiment: cell-based or functional assay
[1] = molecular target: glucagon-like peptide-1 (GLP-1) receptor; experiment: cell-based or functional assay

| Binder | Biological activity (%) (cAMP chemiluminescence, RLU, CHO-K1 cells stably expressing GcgR; relative to OXM3) (glucagon (Gcg) receptor) | Relative biological activity (cAMP chemiluminescence, RLU, CHO-K1 cells stably expressing GLP-1R; relative to OXM3) [1] |
| --- | --- | --- |
| H[Aib]QGTFTSDYSKYLDEKKAK([PEG5CH2CO-γGlu-C20 diacid])EFVEWLLEGGPSSGAPPPS-NH2 [Compound 2] | 86.9% | 260% |
| H[Aib]QGTFTSDYSKYLDEKKAKEFVEWLLEGGPSSGAPPPS-NH2 (not fully specified (residue 20)) [Compound 3] | 94.2% | 158% |
| H[Aib]QGTFTSDYSKYLDEKKAK([Gly-Gly-Glu-Gly-Glu-Gly-γGlu-C20 diacid])EFVEWLLEGGPSSGAPPPS-NH2 [Compound 4] | 49.6% | 116% |
| H[Aib]QGTFTSDYSKYLDEKKAK([AEEA-AEEA-γGlu-C20 diacid])EFVEWLLEGGPSSGAPPPS-NH2 [Compound 1] | 90.5% | 188% |
